# Measured values reported in the RNAGym collection of RNA variant scans (doi:10.7554/elife.80360).
# B1: HDV Ribozyme (parent)
# chain: GGCCGGCAUGGUCCCAGCCUCCUCGCUGGCGCCGGCUGGGCAACAUUCCGAGGGGACCGUCCCCUCGGUAAUGGCGAAUGGGACCCA
# Variants of: B1
# Test: self-cleavage, relative activity (ratio to wild type); higher = more cleavage; co-transcriptional
row,Variant,self-cleavage
1,C14G C61A,0.88
2,C13U G55U,0.598
3,C14U U46G,0.875
4,C14U C41G,1.06
5,C14U C41A,1.06
6,C14U C22U,0.935
7,C15A G31U,0.0339
8,C13U A16C,0.8
9,C14A A83G,0.475
10,C14G U46C,0.511
11,C14A C57A,0.745
12,C14A U23A,0.575
13,C13U G40C,0.0739
14,C13U G40U,0.117
15,C13G A71G,0
16,C13G A71U,0
17,C14A G82U,0.665
18,C15A G35A,0.405
19,C15A G35C,0.138
20,C14G U65C,0.8
21,C14G U65A,0.65

row,Variant,self-cleavage
1,C14G G28A,0.0415
2,C15A U23A,0.604
3,C15A U23G,0.185
4,C15A A43U,0.212
5,C14A C36A,0
6,C14A A42U,0.201
7,C14A G53U,0.848
8,C14A G53A,0.499
9,C13G C19G,0.0791
10,C13G C64G,0.138
11,C14A G17U,0.199
12,C15A U27G,0.653
13,C15A U79G,0.831
14,C14U G34A,0.17
15,C15A A56U,0.743
16,C14A C61A,0.878
17,C13G U65C,0.095
18,C13G U65A,0.101
19,C15A C44U,0.426
20,C15A C44G,0.431
21,C13G G25A,0

row,Variant,self-cleavage
1,C13U G67U,0.712
2,C14U G76A,1.49
3,C15A C48A,0.597
4,C14U U23A,1.04
5,C15A C63G,0.539
6,C14U G73U,0.309
7,C15A A70C,0.554
8,C14G C62U,0.554
9,C14G C62A,0.437
10,C13G C26A,0.35
11,C13G C26G,0.0978
12,C13G G50U,0.0426
13,C14A C21U,0.151
14,C14U G31A,0.475
15,C13A G81C,0
16,C14U C49G,0.831
17,C14G C58G,0.712
18,C13U C63A,0.542
19,C13U U65G,0.895
20,C13U U65C,0.604
21,C14A A51C,0.959

row,Variant,self-cleavage
1,C14U C36G,0.322
2,C13G U46G,0.0554
3,C13G U46C,0.18
4,C15A C18U,0.295
5,C14U G52U,1.04
6,C14G G40U,0.0594
7,C14A U69C,0.95
8,C14A G68A,0.811
9,C15A C36U,0.253
10,C15A C36A,0.0692
11,C14A G31A,0.121
12,C14A G31U,0.148
13,C14G C49G,0.383
14,C14G C49U,0.529
15,C14G G35U,0
16,C14G G35C,0
17,C14G G35A,0.199
18,C13U C61U,0.77
19,C13U C61A,0.47
20,C14G C33A,0.151
